Assay results: PMC2670979

What was measured:
[1] = target: GST-Miro1 ΔEF (UniProt Q8IXI2); test: pull-down; as a5 but at 5 uM [Ca2+]free; band normalised to the level in 0 Ca2+
[2] = target: GST-Miro1 WT (UniProt Q8IXI2); test: as above
Sequence of GST-Miro1 WT (Q8IXI2 whole entry): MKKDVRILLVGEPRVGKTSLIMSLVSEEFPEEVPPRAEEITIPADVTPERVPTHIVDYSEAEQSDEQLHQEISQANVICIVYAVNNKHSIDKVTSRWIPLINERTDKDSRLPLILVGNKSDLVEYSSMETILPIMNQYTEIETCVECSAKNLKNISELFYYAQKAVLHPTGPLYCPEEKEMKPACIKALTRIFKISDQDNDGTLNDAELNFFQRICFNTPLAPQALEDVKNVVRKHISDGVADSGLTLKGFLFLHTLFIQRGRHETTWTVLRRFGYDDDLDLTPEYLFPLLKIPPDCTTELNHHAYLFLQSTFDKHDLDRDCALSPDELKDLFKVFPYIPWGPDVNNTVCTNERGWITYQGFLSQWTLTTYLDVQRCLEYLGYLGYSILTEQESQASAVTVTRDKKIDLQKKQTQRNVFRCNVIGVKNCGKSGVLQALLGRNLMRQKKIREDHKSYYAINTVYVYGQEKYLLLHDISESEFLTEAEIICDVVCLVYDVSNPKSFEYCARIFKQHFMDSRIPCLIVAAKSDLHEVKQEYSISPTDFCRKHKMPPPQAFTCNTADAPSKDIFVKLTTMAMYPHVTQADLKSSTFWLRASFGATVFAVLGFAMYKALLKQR

Sequence of KIF5 motors (endogenous, detected using a pan-KIF5 antibody) (Q2PQA9 whole entry): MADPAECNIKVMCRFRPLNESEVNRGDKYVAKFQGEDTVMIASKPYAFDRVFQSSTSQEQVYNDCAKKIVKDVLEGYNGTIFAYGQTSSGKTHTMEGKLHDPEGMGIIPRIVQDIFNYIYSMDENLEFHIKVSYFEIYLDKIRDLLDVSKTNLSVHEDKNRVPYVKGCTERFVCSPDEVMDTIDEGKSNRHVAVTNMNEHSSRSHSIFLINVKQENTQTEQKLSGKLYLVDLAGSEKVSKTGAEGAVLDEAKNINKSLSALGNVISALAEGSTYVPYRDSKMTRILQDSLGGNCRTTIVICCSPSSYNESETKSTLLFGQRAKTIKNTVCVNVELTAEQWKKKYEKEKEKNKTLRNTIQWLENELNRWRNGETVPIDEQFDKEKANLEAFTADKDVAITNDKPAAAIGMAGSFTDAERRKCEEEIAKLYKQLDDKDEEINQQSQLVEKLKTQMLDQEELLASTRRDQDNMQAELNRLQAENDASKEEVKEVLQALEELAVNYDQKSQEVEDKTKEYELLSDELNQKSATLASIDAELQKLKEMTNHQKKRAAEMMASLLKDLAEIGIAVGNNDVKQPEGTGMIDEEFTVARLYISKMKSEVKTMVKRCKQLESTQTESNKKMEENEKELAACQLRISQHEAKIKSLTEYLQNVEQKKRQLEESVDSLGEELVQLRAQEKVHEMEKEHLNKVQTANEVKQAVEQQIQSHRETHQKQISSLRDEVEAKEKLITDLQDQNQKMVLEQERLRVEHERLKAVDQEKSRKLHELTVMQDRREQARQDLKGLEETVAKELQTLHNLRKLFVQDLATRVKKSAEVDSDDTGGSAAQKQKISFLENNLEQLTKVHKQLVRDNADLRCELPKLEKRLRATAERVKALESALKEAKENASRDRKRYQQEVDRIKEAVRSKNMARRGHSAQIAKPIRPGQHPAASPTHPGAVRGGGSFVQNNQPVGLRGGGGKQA
Sequence of GST-Miro1 ΔEF (Q8IXI2 whole entry E208K/E328K): as the sequence (Q8IXI2 whole entry) above, with E208K, E328K counted along it

percent of the level in 0 [Ca2+], at 5 uM [Ca2+] [1]: 87%
percent of the level in 0 [Ca2+], at 5 uM [Ca2+]free [2]: 15%
Substance: KIF5 motors (endogenous, detected using a pan-KIF5 antibody) (from UniProt Q2PQA9 1-963) (natural protein)
